This note sets out measurements from doi:10.1101/2023.02.07.527516.

Common to all, as to experiment: native gel or EMSA
For test [1], the target named is GluA1 AMPA receptor subunit, wild type (rat, flip) (rat).
The target of test [2] is GluA1 lacking the extracellular domains (GluA1-ΔECD) (rat).
Test [3] has as its target GluA1(G816A) (rat).
Test [4] concerns the target GluA1(G816A)-TARP γ-2 tandem (rat).
In test [5] the target is GluA1-TARP γ-2 tandem (rat).
For test [6], the target named is GluA2(R), edited form of the GluA2 AMPA receptor subunit (rat, flip) (rat).

GluA2(R), edited form of the GluA2 AMPA receptor subunit (rat, flip), sequence (P19491 22-883): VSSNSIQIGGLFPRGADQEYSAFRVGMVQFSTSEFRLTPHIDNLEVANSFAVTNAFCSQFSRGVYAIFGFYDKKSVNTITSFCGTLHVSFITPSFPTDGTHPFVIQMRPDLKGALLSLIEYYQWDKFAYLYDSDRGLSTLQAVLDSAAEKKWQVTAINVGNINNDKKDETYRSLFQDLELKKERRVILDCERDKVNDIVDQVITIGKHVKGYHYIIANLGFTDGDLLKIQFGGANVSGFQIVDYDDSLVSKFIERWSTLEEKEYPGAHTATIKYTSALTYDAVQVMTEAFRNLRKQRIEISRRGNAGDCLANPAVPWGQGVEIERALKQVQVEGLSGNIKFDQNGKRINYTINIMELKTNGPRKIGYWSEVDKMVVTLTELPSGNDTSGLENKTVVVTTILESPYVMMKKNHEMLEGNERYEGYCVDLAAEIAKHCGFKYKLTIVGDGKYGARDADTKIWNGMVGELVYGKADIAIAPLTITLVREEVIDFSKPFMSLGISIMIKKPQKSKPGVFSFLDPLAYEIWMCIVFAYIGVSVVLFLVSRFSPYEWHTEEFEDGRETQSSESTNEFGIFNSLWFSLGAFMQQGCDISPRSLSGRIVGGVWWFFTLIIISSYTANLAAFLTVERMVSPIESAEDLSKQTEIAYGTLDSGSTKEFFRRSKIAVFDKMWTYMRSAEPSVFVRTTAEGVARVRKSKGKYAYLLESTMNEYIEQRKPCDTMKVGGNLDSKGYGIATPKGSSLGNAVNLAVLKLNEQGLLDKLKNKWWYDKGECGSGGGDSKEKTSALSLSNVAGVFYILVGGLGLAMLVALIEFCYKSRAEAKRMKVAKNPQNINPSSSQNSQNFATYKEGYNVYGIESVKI

“GluA1 AMPA receptor subunit, wild type (rat, flip)” gave a stoichiometry N in test [1] of 4.
In test [2], “GluA1 lacking the extracellular domains (GluA1-ΔECD) (domain or fragment)” showed a stoichiometry N of 4.
Consider GluA1(G816A) (receptor), for which the tetramer formation in test [3] came out at 50%.
Regarding GluA1(G816A)-TARP γ-2 tandem, the stoichiometry N in test [4] was determined as 4.
As to GluA1-TARP γ-2 tandem, the stoichiometry N in test [5] amounted to 4.
The substance “GluA2(R), edited form of the GluA2 AMPA receptor subunit (rat, flip)” gave a stoichiometry N in test [6] of 4.

As usually defined, the stoichiometry N is a count of units in the complex or per binding partner.
